± gives the uncertainty stated by the source.

A short description of this data set: abundance fitness (aPCA) (normalised: wild type 0, dead -1); higher = more abundant; growth selection in yeast, the domain comes from the species named. The conditions noted are these: Homo sapiens.
In the case of “NEDD4-like E3 ubiquitin-protein ligase WWP2 R468Q, O00308”, the abundance fitness was -0.111 ± 0.066.

As for “NEDD4-like E3 ubiquitin-protein ligase WWP2 R468S, O00308”, the abundance fitness is -0.212 ± 0.053. “NEDD4-like E3 ubiquitin-protein ligase WWP2 R468T, O00308” had an abundance fitness of -0.336 ± 0.069. To “NEDD4-like E3 ubiquitin-protein ligase WWP2 R468V, O00308” belongs -0.352 ± 0.036; to “NEDD4-like E3 ubiquitin-protein ligase WWP2 R468W, O00308”, -0.336 ± 0.066; to “NEDD4-like E3 ubiquitin-protein ligase WWP2 R468Y, O00308”, -0.251 ± 0.064. In turn, “NEDD4-like E3 ubiquitin-protein ligase WWP2 R476A, O00308” showed an abundance fitness of -0.291 ± 0.058. For the substance “NEDD4-like E3 ubiquitin-protein ligase WWP2 R476C, O00308”, the abundance fitness was -0.198 ± 0.061.

For the substance “NEDD4-like E3 ubiquitin-protein ligase WWP2 R476D, O00308”, the abundance fitness was -0.297 ± 0.047.

“NEDD4-like E3 ubiquitin-protein ligase WWP2 R476F, O00308” displayed an abundance fitness of -0.505 ± 0.084. In the case of “NEDD4-like E3 ubiquitin-protein ligase WWP2 R476G, O00308” it was -0.206 ± 0.051; in that of “NEDD4-like E3 ubiquitin-protein ligase WWP2 R476H, O00308”, -0.4 ± 0.081.

“NEDD4-like E3 ubiquitin-protein ligase WWP2 R476K, O00308” returned an abundance fitness of -0.248 ± 0.069.

“NEDD4-like E3 ubiquitin-protein ligase WWP2 R476L, O00308” registered an abundance fitness of -0.202 ± 0.037. In the case of “NEDD4-like E3 ubiquitin-protein ligase WWP2 R476M, O00308” it was -0.324 ± 0.048; in that of “NEDD4-like E3 ubiquitin-protein ligase WWP2 R476N, O00308”, -0.186 ± 0.049. On to “NEDD4-like E3 ubiquitin-protein ligase WWP2 R476P, O00308”, for which the abundance fitness was -0.188 ± 0.07.

With “NEDD4-like E3 ubiquitin-protein ligase WWP2 R476Q, O00308”, the abundance fitness was -0.406 ± 0.074.

“NEDD4-like E3 ubiquitin-protein ligase WWP2 R476S, O00308” gave an abundance fitness of -0.271 ± 0.052. For “NEDD4-like E3 ubiquitin-protein ligase WWP2 R476T, O00308”, the abundance fitness was -0.075 ± 0.049.

As to “NEDD4-like E3 ubiquitin-protein ligase WWP2 R476W, O00308”, the abundance fitness is -0.294 ± 0.045. Turning to “NEDD4-like E3 ubiquitin-protein ligase WWP2 R476Y, O00308”, the abundance fitness is -0.369 ± 0.05. In the case of “NEDD4-like E3 ubiquitin-protein ligase WWP2 R493A, O00308” it was -0.237 ± 0.12. For the substance “NEDD4-like E3 ubiquitin-protein ligase WWP2 R493C, O00308”, the abundance fitness was -0.399 ± 0.12.

“NEDD4-like E3 ubiquitin-protein ligase WWP2 R493E, O00308” returned an abundance fitness of -0.058 ± 0.063.

“NEDD4-like E3 ubiquitin-protein ligase WWP2 R493F, O00308” showed an abundance fitness of 0.299 ± 0.12. In the case of “NEDD4-like E3 ubiquitin-protein ligase WWP2 R493G, O00308” it was 0.041 ± 0.064. On to “NEDD4-like E3 ubiquitin-protein ligase WWP2 R493H, O00308”, for which the abundance fitness stood at 0.065 ± 0.087. With “NEDD4-like E3 ubiquitin-protein ligase WWP2 R493I, O00308”, the abundance fitness was -0.502 ± 0.18. To “NEDD4-like E3 ubiquitin-protein ligase WWP2 R493K, O00308” belongs -0.022 ± 0.089; to “NEDD4-like E3 ubiquitin-protein ligase WWP2 R493L, O00308”, -0.088 ± 0.1; to “NEDD4-like E3 ubiquitin-protein ligase WWP2 R493M, O00308”, -0.083 ± 0.082. Consider “NEDD4-like E3 ubiquitin-protein ligase WWP2 R493N, O00308”, for which the abundance fitness is -0.666 ± 0.28. As to “NEDD4-like E3 ubiquitin-protein ligase WWP2 R493P, O00308”, the abundance fitness is -0.006 ± 0.063. Take “NEDD4-like E3 ubiquitin-protein ligase WWP2 R493Q, O00308”: the abundance fitness worked out at 0.132 ± 0.11.

Substance “NEDD4-like E3 ubiquitin-protein ligase WWP2 R493S, O00308” came in with an abundance fitness of -0.201 ± 0.079. In the case of “NEDD4-like E3 ubiquitin-protein ligase WWP2 R493T, O00308” it was 0.002 ± 0.056; in that of “NEDD4-like E3 ubiquitin-protein ligase WWP2 R493V, O00308”, -0.069 ± 0.037.

“NEDD4-like E3 ubiquitin-protein ligase WWP2 R493W, O00308” displayed an abundance fitness of -0.013 ± 0.071. “NEDD4-like E3 ubiquitin-protein ligase WWP2 R493Y, O00308” returned an abundance fitness of -0.055 ± 0.055. “NEDD4-like E3 ubiquitin-protein ligase WWP2 S456A, O00308” yielded an abundance fitness of -0.066 ± 0.048. Substance “NEDD4-like E3 ubiquitin-protein ligase WWP2 S456C, O00308” displayed an abundance fitness of -0.01 ± 0.063. “NEDD4-like E3 ubiquitin-protein ligase WWP2 S456D, O00308” came in with an abundance fitness of 0.085 ± 0.071. “NEDD4-like E3 ubiquitin-protein ligase WWP2 S456E, O00308” came in with an abundance fitness of 0.017 ± 0.035.

“NEDD4-like E3 ubiquitin-protein ligase WWP2 S456F, O00308” displayed an abundance fitness of -0.24 ± 0.063. To “NEDD4-like E3 ubiquitin-protein ligase WWP2 S456G, O00308” belongs -0.043 ± 0.046. “NEDD4-like E3 ubiquitin-protein ligase WWP2 S456H, O00308” had an abundance fitness of 0.346 ± 0.096. To “NEDD4-like E3 ubiquitin-protein ligase WWP2 S456K, O00308” belongs -0.039 ± 0.054; to “NEDD4-like E3 ubiquitin-protein ligase WWP2 S456L, O00308”, -0.169 ± 0.05.

For “NEDD4-like E3 ubiquitin-protein ligase WWP2 S456M, O00308”, the abundance fitness was -0.06 ± 0.065. To “NEDD4-like E3 ubiquitin-protein ligase WWP2 S456N, O00308” belongs 0.04 ± 0.074; to “NEDD4-like E3 ubiquitin-protein ligase WWP2 S456P, O00308”, -0.062 ± 0.062. To “NEDD4-like E3 ubiquitin-protein ligase WWP2 S456Q, O00308” belongs -0.11 ± 0.066; to “NEDD4-like E3 ubiquitin-protein ligase WWP2 S456R, O00308”, -0.142 ± 0.041; to “NEDD4-like E3 ubiquitin-protein ligase WWP2 S456T, O00308”, -0.04 ± 0.06. With “NEDD4-like E3 ubiquitin-protein ligase WWP2 S456V, O00308”, the abundance fitness is -0.208 ± 0.059. To “NEDD4-like E3 ubiquitin-protein ligase WWP2 S456W, O00308” belongs -0.192 ± 0.047; to “NEDD4-like E3 ubiquitin-protein ligase WWP2 S456Y, O00308”, -0.589 ± 0.12; to “NEDD4-like E3 ubiquitin-protein ligase WWP2 S481A, O00308”, 0 ± 0.061.

On to “NEDD4-like E3 ubiquitin-protein ligase WWP2 S481C, O00308”, for which the abundance fitness is -0.054 ± 0.061. In the case of “NEDD4-like E3 ubiquitin-protein ligase WWP2 S481D, O00308” it was 0.01 ± 0.037; in that of “NEDD4-like E3 ubiquitin-protein ligase WWP2 S481E, O00308”, 0.022 ± 0.071; in that of “NEDD4-like E3 ubiquitin-protein ligase WWP2 S481F, O00308”, -0.039 ± 0.062.

For “NEDD4-like E3 ubiquitin-protein ligase WWP2 S481G, O00308”, the abundance fitness was -0.032 ± 0.047. Turning to “NEDD4-like E3 ubiquitin-protein ligase WWP2 S481H, O00308”, the abundance fitness is -0.17 ± 0.08.

In the case of “NEDD4-like E3 ubiquitin-protein ligase WWP2 S481I, O00308”, the abundance fitness was -0.047 ± 0.067. In the case of “NEDD4-like E3 ubiquitin-protein ligase WWP2 S481K, O00308” it was -0.072 ± 0.049; in that of “NEDD4-like E3 ubiquitin-protein ligase WWP2 S481L, O00308”, -0.081 ± 0.053; in that of “NEDD4-like E3 ubiquitin-protein ligase WWP2 S481N, O00308”, -0.062 ± 0.054. In turn, “NEDD4-like E3 ubiquitin-protein ligase WWP2 S481P, O00308” gave an abundance fitness of 0.003 ± 0.049.

“NEDD4-like E3 ubiquitin-protein ligase WWP2 S481Q, O00308” came in with an abundance fitness of -0.014 ± 0.039. To “NEDD4-like E3 ubiquitin-protein ligase WWP2 S481R, O00308” belongs -0.042 ± 0.034.

Substance “NEDD4-like E3 ubiquitin-protein ligase WWP2 S481T, O00308” displayed an abundance fitness of 0.029 ± 0.047. To “NEDD4-like E3 ubiquitin-protein ligase WWP2 S481V, O00308” belongs -0.151 ± 0.056. To “NEDD4-like E3 ubiquitin-protein ligase WWP2 S481W, O00308” belongs -0.09 ± 0.035; to “NEDD4-like E3 ubiquitin-protein ligase WWP2 S481Y, O00308”, -0.102 ± 0.063. Take “NEDD4-like E3 ubiquitin-protein ligase WWP2 S487A, O00308”: the abundance fitness was -0.034 ± 0.055. Regarding “NEDD4-like E3 ubiquitin-protein ligase WWP2 S487C, O00308”, the abundance fitness was -0.032 ± 0.04. In the case of “NEDD4-like E3 ubiquitin-protein ligase WWP2 S487D, O00308” it was 0.013 ± 0.036.

(Values after the Human Domainome abundance scans (Beltran et al. 2025).)
